The values that follow come from patent US20110171235A1 (University of California, published 2011).

The target of assay [1] is T1, botulinum neurotoxin type A (BoNT/A), purified holotoxin (Clostridium botulinum, UniProt P0DPI0 2-1296). The experiment in a line: cell-based or functional assay.
Assay [2] concerns the target T1, botulinum neurotoxin type A (BoNT/A), ….
Assay [3] shares this target. The source holds these as a separate data set.
Assay [4] shares this target. Briefly: yeast display.
The target is the same in assay [5]. The source holds these as a separate data set.
For assay [6] the target is unchanged. The experiment in a line: yeast displayed scFv, flow cytometry.
For assay [7] the target is unchanged. The experiment in a line: Kinexa.

Numbering of substitutions follows the chain as printed. Where two headings read alike, the source gives them in different places.

B1: 3D12 scFv (scFv, V domains shown)
VH: QVQLVQSGGGVVHPGRSLKLSCAGSGFTFSDYDMHWVRQAPGKGLEWVAVMWFDGTEKYSAESVKGRFTISRDNSKNTLFLQMNSLRADDTAVYYCAREPDWLLWGDRGALDVWGQGTTVTVSS
VL: DIVMTQSPSTLSASVGDRVTITCRASQSISSWLAWYQQKPGKAPKLLMYEASSLESGVPSRFSGSGSGTEFTLTISSLQPDDFAAYYCQHYNTYPYTFGQGTKLEIK
A word on the Kd: it is the constant that tells how readily two partners part at equilibrium. Regarding B1, in assay [1], the “prolongation of time to neuroparalysis” value worked out at 1.5 fold. The molecule also yielded a Kd in assay [2] of 0.943 nM.

B2: RAZ1 IgG (antibody, V domains shown)
VH: B1 VH
VL: DIVMTQSPSTLSASVGDRVTITCWASQSISSRLAWYQQKPGKAPKLLMYEATSLGSGVPSRFSGSGSGTEFTLTISSLQPDDFAAYYCQHYDTYPYTFGQGTKLEIKR
B2: in assay [3], the “fold higher affinity than 3D12 IgG” value was 35 fold.

B3: C25 scFv (scFv)
scFv: QVQLQESGGGLVKPGGSLKLSCAASGFTFSDYYMYWVRQTPEKRLEWVATISDGGSYTYYPDSVKGRFTISRDNAKNNLYLQMSSLKSEDTAMYYCSRYRYDDAMDYWGQGTTVTVSSGGGGSGGGGSGGGGSDIELTQSPASLAVSLGQRATISCRASESVDSYGHSFMQWYQQKPGQPPKLLIYRASNLEPGIPARFSGSGSGTDFTLTINPVEADDVATYYCQQSNEDPFTFGSGTKLEIKR
For B3, the “prolongation of time to neuroparalysis” value in assay [1] is 2.7 fold.

B4: AR4 scFv (scFv, V domains shown)
VH: QVQLQESGGGLVQPGGSLRLSCAASGFTFEEHYMYWVRQAPGKGLEWVATISDGGSYTYYPDSVEGRFTTSRDNSKNTLYLQMNSLRAEDTAIYYCSRYRYDDAMDYWGQGTLVTVSS
VL: EIVLTQSPATLSLSPGERATISCRASESVDSYGHSFMQWYQQKPGQAPRLLIYRASNLEPGIPARFSGSGSGTDFTLTISSLEPEDFAVYYCQQGNEVPFTFGQGTKVEIK
Regarding B4, the “fold higher affinity than HuC25 scFv” value in assay [4] was found to be 37 fold. Besides, the Kd in assay [5] was 0.0226 nM; in assay [6] it was 0.023 nM.

B5: AR3 scFv (scFv, V domains shown)
VH: B4 VH with E30G
VL: B4 VL
In assay [6], B5 showed a Kd of 0.019 nM.

B6: HuC25 scFv (scFv, V domains shown)
VH: B4 VH with E30S, E31D, H32Y, E65K, T70I, I93M
VL: B4 VL with G95S, V98D
Molecule B6 had a Kd in assay [6] of 0.844 nM.

B7: AR1 scFv (scFv, V domains shown)
VH: B4 VH with E30S, E31D, H32Y, E65K, T70I
VL: B4 VL
For the molecule B7, in assay [6], the Kd worked out at 0.169 nM and the “fold improvement of KD against HuC25” value was found to be 5 fold.

B8: AR2 scFv (scFv, V domains shown)
VH: B4 VH with E30S, E31D, E65K
VL: B4 VL
Regarding B8, in assay [6], the Kd worked out at 0.0614 nM and the “fold increase against parental AR1” value stood at 2.8 fold.

B9: AR4 IgG (antibody, V domains shown)
VH: B4 VH
VL: EIVLTQSPATLSLSPGERATISCRASESVDSYGHSFMQWYQQKPGQAPRLLIYRASNLEPGIPARFSGSGSGTDFTLTISSLEPEDFAVYYCQQGNEVPFTFGQGTKVEIKR
B9: the “fold higher affinity than HuC25 IgG” value in assay [7] was found to be 34 fold.
